2 proteins from publication PMC9025568, “Identification and Characterization of Two Bibenzyl Glycosyltransferases from the Liverwort Marchantia polymorpha” (Antioxidants, 2022) can be followed below.

What all share (assay): HPLC glucosylation assay, nonlinear fit (GraphPad Prism)
Common to all, as to type: biochemical, Marchantia polymorpha

Substrate in data set [1]: Oc1ccc(CCc2cccc(O)c2)cc1
The note with it: UDP-glucose as donor; Tris-HCl, optimal pH (7.0), optimal temperature (25-30 °C), 12 min. The text has this: HPLC glucosylation assay, nonlinear fit (GraphPad Prism) on MpUGT741A1

Substrate in data set [2]: Oc1ccc(CCc2cccc(O)c2)cc1
Conditions: UDP-glucose as donor, Tris-HCl, optimal pH (7.0-7.5), 30 °C, 12 min. The text has this: (§1) HPLC glucosylation assay, nonlinear fit (GraphPad Prism) on MpUGT737B1

Substrate in data set [3]: O=C(CCc1ccc(O)cc1)c1c(O)cc(O)cc1O
Conditions: UDP-glucose as donor, Tris-HCl, optimal pH (7.0-7.5), 30 °C, 12 min.
Description: as §1

Substrate in data set [4]: Oc1ccc(CCc2cc(O)cc(O)c2)cc1
Conditions: UDP-glucose as donor, Tris-HCl, optimal pH (7.0-7.5), 30 °C, 12 min.
Description: as §1

The term Km denotes the substrate concentration at which the rate is half of its maximum. A word on the Vmax: it is the rate approached at saturating substrate. The kcat is the number of substrate molecules converted per active site and unit of time at saturation. What is called kcat/Km is the turnover number divided by the Michaelis constant.

B1: MpUGT741A1 (Marchantia polymorpha) (protein)
chain: MGSHVERPPRALLFPVVASGHWGPFLQLILQLATKKLNFTLLADRGRCDELKAYQAKGAFATLDVEFLEVYTDPSTLSLRKDLVPAMWTNLESFISNGEFDPSRYTCMISDMFLYFCQDLADKWGIPNYFYVTCPTYFGLVLLHGEGIVDGGWIPQNPVKRKQFLDLPGLEMFTGGDMPMALTEMEPDLFHLLPRAIKGSAGLVFNSFEEFEKKPLSDLRDQLKLNAMPGKGPPTVFTIGPLLLLPGIPGALDDTKPVEKSESIAWLDKQQKSSVLFICFGSQRELPEPLITGIASGLEDTGVPFLWALRIPPQSSKIESLPEGFESRTQSRGLVLTSWVPQQEILLHPSVGGFLTHCGWNSILESMLGGVPIAAFPLYAEQRMNQRYMVNAVKTAVAIEGEHGQYEAKEIAAAIMRLLKGKEGVEARQNMQIMKEMAYAAMEEGGSSHKNLQNFLAEVQRVR
notes: full-length ORF (1392 bp, 463 residues) in pET32a(+), N-terminal Trx-S-His tag, E. coli BL21(DE3), purified
With B1, in data set [1], the Km stood at 89.2 ± 17.6 µM, the Vmax amounted to 0.15 µmol/min/mg, the kcat was 0.124 ± 0.012 s⁻¹ and the kcat/Km stood at 1500 M⁻¹ s⁻¹.

B2: MpUGT737B1 (Marchantia polymorpha) (protein)
chain: MELTNGTTRRAHVLMVCVPFPGHVAPFTQLLYHLSCHENLKVTVMGHKARNAEMIKLYEKGEFKGLDIHFETIFADPPVYPSDPKFPIRAALCADQMFVEFEPIRRRLVAEKDNVGAPTSIICDMFLWFTKDAADEMGVPWYPFFSTSQWFGYCAYIGDELARRNFHPHHSEEKDQRIDITGLEFAYVHDIPSEVLEFPEFYAKVTDRSFRATGILCNTAYELEGSAGTLMATKALVQRSGKKNLKGEEAQIIPVGPIAQIPGFGVQYSLRDQPYECLKWLNAHTEKSVLYIAFGSLGNIVPEVFHELALGLEAGGVPFLWALKLTPAQKEELLPEGFLERIQSSGMGFIESGWAPQTQILMHPAVGGFLSHCGWNSTLESLCAGVPMITWPLSADQPMNARFLVDVKKVAVTVLSGSADESVVTHDDISKAIKRLFGDEEGKQIAKNSLELKKLLASLVAEGGSTYKALRYFIQDLVMV
notes: full-length ORF (1443 bp, 480 residues) in pET32a(+), N-terminal Trx-S-His tag, E. coli BL21(DE3), purified
Consider B2, for which, in data set [2], the Km was determined as 39.3 ± 7.5 µM, the Vmax came to 0.0373 µmol/min/mg, the kcat was 0.033 ± 0.002 s⁻¹ and the kcat/Km was 846 M⁻¹ s⁻¹. For the same protein, in data set [3], the Km amounted to 50.2 ± 10.6 µM, the Vmax was found to be 0.07 µmol/min/mg, the kcat worked out at 0.062 ± 0.005 s⁻¹ and the kcat/Km amounted to 1240 M⁻¹ s⁻¹. For the same protein, in data set [4], the Km was 45.6 ± 9.7 µM, the Vmax is 0.1 µmol/min/mg, the kcat turned out to be 0.089 ± 0.006 s⁻¹ and the kcat/Km came out at 1960 M⁻¹ s⁻¹.
